Patent publication US20230357342A1 (published 2023)
Each block holds one binder with its values, some of them ahead of it.

Key:
[1] = molecular target: T1, IL-18 receptor on HEK-Blue IL18R reporter cells (UniProt Q13478 19-541; O95256 20-599, limits assumed); assay: cell-based or functional assay
T1 sequence (looked up) 1: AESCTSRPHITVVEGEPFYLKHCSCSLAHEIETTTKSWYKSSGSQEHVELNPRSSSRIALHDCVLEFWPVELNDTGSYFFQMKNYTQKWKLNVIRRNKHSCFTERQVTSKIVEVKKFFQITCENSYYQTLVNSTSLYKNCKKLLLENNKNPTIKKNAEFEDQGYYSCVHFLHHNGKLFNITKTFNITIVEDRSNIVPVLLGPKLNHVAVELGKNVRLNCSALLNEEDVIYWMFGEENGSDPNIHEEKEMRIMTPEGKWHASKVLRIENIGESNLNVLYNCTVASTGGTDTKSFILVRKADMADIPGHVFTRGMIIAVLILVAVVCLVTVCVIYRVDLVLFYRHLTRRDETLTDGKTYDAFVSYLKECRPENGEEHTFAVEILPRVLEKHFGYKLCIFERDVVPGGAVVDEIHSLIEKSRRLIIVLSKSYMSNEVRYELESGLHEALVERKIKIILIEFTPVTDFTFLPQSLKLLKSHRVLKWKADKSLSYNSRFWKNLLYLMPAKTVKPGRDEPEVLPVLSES
T1 sequence (looked up) 2: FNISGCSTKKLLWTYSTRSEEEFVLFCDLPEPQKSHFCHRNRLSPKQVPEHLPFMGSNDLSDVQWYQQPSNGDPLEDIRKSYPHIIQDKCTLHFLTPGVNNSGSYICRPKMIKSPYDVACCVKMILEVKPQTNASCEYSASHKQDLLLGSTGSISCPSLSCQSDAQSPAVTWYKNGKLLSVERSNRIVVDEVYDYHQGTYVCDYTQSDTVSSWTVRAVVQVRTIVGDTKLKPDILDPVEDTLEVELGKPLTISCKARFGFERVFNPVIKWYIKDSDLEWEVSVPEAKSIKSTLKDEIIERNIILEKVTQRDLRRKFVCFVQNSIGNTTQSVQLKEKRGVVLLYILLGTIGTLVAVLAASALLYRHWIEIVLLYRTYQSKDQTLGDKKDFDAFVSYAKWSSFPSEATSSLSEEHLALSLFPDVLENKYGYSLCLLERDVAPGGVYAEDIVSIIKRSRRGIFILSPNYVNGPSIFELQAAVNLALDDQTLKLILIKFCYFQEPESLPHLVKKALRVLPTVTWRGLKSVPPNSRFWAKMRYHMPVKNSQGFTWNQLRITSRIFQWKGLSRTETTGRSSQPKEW

[2] = molecular target: T2, IL-18Rα/β heterodimer (Fc fused human IL-18Rα mixed with Fc fused human IL-18Rβ) (human, UniProt Q13478 19-329; O95256 20-356); assay: SPR, Fc-IL-18Rα and Fc-IL-18Rβ pre-mixed and captured, IL-18 as analyte, heterogeneous ligand model
T2 construct: 6 µg/mL of alpha and beta receptors were mixed and pre-incubated 30 min before capture on anti-human IgG; also called alpha/beta heterodimer IL-18 receptor; heterodimeric human IL-18 receptor alpha (CD218a) and IL-18R accessory protein (IL-18RAP/CDw218b); not shown: Fc portion
T2 sequence (looked up) 1: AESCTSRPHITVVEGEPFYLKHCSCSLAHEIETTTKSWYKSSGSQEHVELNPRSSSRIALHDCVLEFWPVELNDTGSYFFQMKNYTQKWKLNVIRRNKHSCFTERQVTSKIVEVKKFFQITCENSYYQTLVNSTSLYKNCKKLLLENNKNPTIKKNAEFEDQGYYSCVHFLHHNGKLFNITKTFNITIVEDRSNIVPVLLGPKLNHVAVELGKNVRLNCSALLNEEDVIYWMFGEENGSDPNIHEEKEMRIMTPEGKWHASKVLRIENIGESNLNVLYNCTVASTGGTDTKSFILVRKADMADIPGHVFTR
T2 sequence (looked up) 2: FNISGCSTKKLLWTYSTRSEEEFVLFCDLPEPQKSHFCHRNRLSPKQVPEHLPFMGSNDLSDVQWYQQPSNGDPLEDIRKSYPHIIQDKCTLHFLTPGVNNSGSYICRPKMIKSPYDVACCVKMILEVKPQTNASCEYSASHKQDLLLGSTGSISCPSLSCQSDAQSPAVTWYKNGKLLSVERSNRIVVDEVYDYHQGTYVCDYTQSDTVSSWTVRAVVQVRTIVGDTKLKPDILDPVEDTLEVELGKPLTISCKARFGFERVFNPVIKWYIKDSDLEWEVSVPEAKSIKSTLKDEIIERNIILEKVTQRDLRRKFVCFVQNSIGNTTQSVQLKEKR
Description: (§1) The interaction of the wild type and of modified IL-18 polypeptides with human IL-18 receptor subunits are measured with Surface Plasmon Resonance (SPR) technology. Anti-human IgG antibodies are bound by amine coupling onto a CM5 chip to capture 6 μg/mL of Fc fused human IL-18Rα, 6 μg/mL of Fc fused human IL-18Rβ, or 2 μg/mL of Fc fused human IL-18BP isoform a (IL-18BPa) for 30 min before capture. In other settings, 6 μg/mL of alpha and beta IL-18 receptors are mixed and pre-incubated for 30 min before capture of the alpha/beta heterodimer IL-18 receptor.
(§2) The kinetic binding of the IL-18 analytes are measured with a Biacore 8K instrument in two fold serial dilutions starting at 1 μM down to 0.98 nM. Regeneration of the surface back to amine coupled anti IgG antibody is done after every concentration of analyte. To measure the protein association to the receptors, the samples are injected with a flow rate of 50 μL/min for 60 s, followed by 300 s buffer only to detect the dissociation. The used running buffer is 1×PBS with 0.05% Tween20. The relative response units (RU, Y-axis) are plotted against time (s, X-axis) and analyzed in a kinetic 1:1 binding model for the monomer receptor binding and for the binding to the IL-18BP. A kinetic heterogenous ligand fit model is applied for the alpha/beta heterodimer binding.

Fc fused human IL-18Rα = molecular target: T3, Fc fused human IL-18Rα (human, UniProt Q13478 19-329); assay: SPR, Fc-IL-18Rα captured via anti-human IgG, IL-18 as analyte, 1:1 model
T3 construct: captured by anti-human IgG on a CM5 chip; also called IL-18Rα monomer; human IL-18 receptor alpha (CD218a); not shown: Fc portion
T3 sequence (looked up): T2 sequence (looked up) 1
Description: as §1, §2

EC50, HEK-Blue IL18R reporter (SEAP) [1]: 14 nM
B1: modified IL-18 polypeptide SEQ ID NO: 244 (N-terminal G, E6K, V11I, C38A, M51G, K53A, T63A, C76A, C127A) (ligand)
chain: GYFGKLKSKLSIIRNLNDQVLFIDQGNRPLFEDMTDSDARDNAPRTIFIISGYADSQPRGMAVAISVKCEKISTLSAENKIISFKEMNPPDNIKDTKSDIIFFQRSVPGHDNKMQFESSSYEGYFLAAEKERDLFKLILKKEDELGDRSIMFTVQNED

Kd [2]: 2.92 nM | koff [2]: 0.0008 s⁻¹ | kon [2]: 279000 M⁻¹ s⁻¹ | EC50, HEK-Blue IL18R reporter (SEAP) [1]: 0.53 nM | Kd (Fc fused human IL-18Rα): 72.4 nM | koff (Fc fused human IL-18Rα): 0.0151 s⁻¹ | kon (Fc fused human IL-18Rα): 208000 M⁻¹ s⁻¹
B2: modified IL-18 polypeptide SEQ ID NO: 57 (E6K, C38S, K53A) (ligand)
chain: YFGKLKSKLSVIRNLNDQVLFIDQGNRPLFEDMTDSDSRDNAPRTIFIISMYADSQPRGMAVTISVKCEKISTLSCENKIISFKEMNPPDNIKDTKSDIIFFQRSVPGHDNKMQFESSSYEGYFLACEKERDLFKLILKKEDELGDRSIMFTVQNED
